B1: PRKX (parent)
chain: KLLVVDRTRRLGNMKNGANDVKHH
B2: SLC2A12 (parent)
chain: TRIMIGLTLVFFVQITGQPNILFY
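Note: lentivirally expressed fusions sorted by FACS into six bins by GFP to DsRed ratio, PSI derived from sequencing read proportions per bin multiplied by bin number.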

Variants of: B1
Experiment: protein stability index of a GFP-peptide fusion (GPS, HEK-293T) (PSI 1-6); higher = more stable
Conditions: c terminus: a fixed tail appended
Variant KLLVVDRTRRLGNMKNTANDVKHH [G17T] has a protein stability index of 2.9. For DLLVVDRTRRLGNMKNGANDVKHH [K1D], the protein stability index was 3.82. For NLLVVDRTRRLGNMKNGANDVKHH [K1N], the protein stability index was 3.45. In the case of ALLVVDRTRRLGNMKNGANDVKHH [K1A], the protein stability index is reported as 2.33.

Variants of: B2
Experiment: as above
Conditions: c terminus: a fixed tail appended
In the case of TRIMIGLTLVFFVQITGQPNILFH [Y24H], the protein stability index is reported as 2.29. In the case of TRIMIGLTLVFFVQITGQPNILFW [Y24W], the protein stability index is reported as 2.69. With TRIMIGLTLVFFVQITGQPNILFM [Y24M] the protein stability index was 4.11. TRIMIGLTLVFWVQITGQPNILFY [F12W] gave a protein stability index of 2.48. Variant TRIMIGLTLVFSVQITGQPNILFY [F12S] has a protein stability index of 3.48. Work on TRIMIGLTLVFAVQITGQPNILFY [F12A] yielded a protein stability index of 4.95. For TRIMIGLTLVFEVQITGQPNILFY [F12E], the protein stability index was 2.77. For TRIMIGLTLVFPVQITGQPNILFY [F12P], the protein stability index was 4.16. TRIMIGLTLVFDVQITGQPNILFY [F12D] showed a protein stability index of 2.7. Variant TRIMIGLTLVFIVQITGQPNILFY [F12I] has a protein stability index of 2.79. For TRIMIGLTLVFFVQLTGQPNILFY [I15L], the protein stability index was 2.74. For TRIMIGLTLVFFVQPTGQPNILFY [I15P], the protein stability index was 3.74. With TRIMIGLTLVFFWQITGQPNILFY [V13W] the protein stability index was 2.85. For TRIMIGLTLVFFKQITGQPNILFY [V13K], the protein stability index was 2.19. With TRIMIGLTLVFFAQITGQPNILFY [V13A] the protein stability index was 3.24. TRIMIGLTLVFFDQITGQPNILFY [V13D] showed a protein stability index of 2.46. With TRIMIGLTLVFFEQITGQPNILFY [V13E] the protein stability index was 2.15. Work on TRIMIGLTLVFFHQITGQPNILFY [V13H] yielded a protein stability index of 3.1. TRIMIGLTLVFFVQIPGQPNILFY [T16P] showed a protein stability index of 3.4. TRIMIGLTLVFFVQIAGQPNILFY [T16A] showed a protein stability index of 2.63. Work on TRIMIGLTLVFFVQINGQPNILFY [T16N] yielded a protein stability index of 4.04. Variant TRIMIGLTLVFFVQITGQPNELFY [I21E] has a protein stability index of 3.88. For TRIMIGLTLVFFVQITGQPNCLFY [I21C], the protein stability index was 2.42. For TRIMIGLTLVFFVQITGQPNTLFY [I21T], the protein stability index was 3.91. In the case of TRIMIGLTLVFFVQITGQPNQLFY [I21Q], the protein stability index is reported as 2.1. With TRIMIGWTLVFFVQITGQPNILFY [L7W] the protein stability index was 2.84. For TRIMIGQTLVFFVQITGQPNILFY [L7Q], the protein stability index was 1.72. Work on TRIMIGITLVFFVQITGQPNILFY [L7I] yielded a protein stability index of 2.63. With TRIMIGHTLVFFVQITGQPNILFY [L7H] the protein stability index was 3.31. With TRIMIGFTLVFFVQITGQPNILFY [L7F] the protein stability index was 2.41. Variant TRIMIGKTLVFFVQITGQPNILFY [L7K] has a protein stability index of 1.8. TRIMIGPTLVFFVQITGQPNILFY [L7P] showed a protein stability index of 2.96. TRIMIGYTLVFFVQITGQPNILFY [L7Y] gave a protein stability index of 4.24. In the case of TRIMIGLTLVFFVQITLQPNILFY [G17L], the protein stability index is reported as 2.86. With TRIMIGLTLVFFVQITDQPNILFY [G17D] the protein stability index was 3.49. TRIMIGLTLVFFVQITGPPNILFY [Q18P] showed a protein stability index of 3.94. TRIMIGLTLVFFVQITGHPNILFY [Q18H] showed a protein stability index of 3.08. TRIMILLTLVFFVQITGQPNILFY [G6L] showed a protein stability index of 2.22. Work on TRIMIELTLVFFVQITGQPNILFY [G6E] yielded a protein stability index of 3.67. For TRIMIVLTLVFFVQITGQPNILFY [G6V], the protein stability index was 2.43. Variant TRIMIWLTLVFFVQITGQPNILFY [G6W] has a protein stability index of 1.9. With TRIMIGLTLVFFVQITGQPNILIY [F23I] the protein stability index was 3.73. TRIMIGLTLVFFVQITGQPNILGY [F23G] showed a protein stability index of 3.83. For TRIMIGLTLVFFVQITGQPNILVY [F23V], the protein stability index was 2.56. TRIMIGLTLVFFVQITGQPNILMY [F23M] showed a protein stability index of 2.94. With TRIMIGLTLVFFVQITGQPFILFY [N20F] the protein stability index was 2.45. For TRIMIGLTLVFFVQITGQPVILFY [N20V], the protein stability index was 2.81. For TRIMIGLTLVFFVQITGQPEILFY [N20E], the protein stability index was 2.12. In the case of TRIMIGLTLVFFVSITGQPNILFY [Q14S], the protein stability index is reported as 3.29. With TRIMIGLTLVFFVFITGQPNILFY [Q14F] the protein stability index was 2.86. For TRIMIGLTLVFFVHITGQPNILFY [Q14H], the protein stability index was 2.02. TRIMIGLTLVFFVVITGQPNILFY [Q14V] showed a protein stability index of 3.44. TRIMIGLTLVFFVKITGQPNILFY [Q14K] showed a protein stability index of 3.25. Variant TRIMIGLTLVFFVDITGQPNILFY [Q14D] has a protein stability index of 2.14. TRIMIGLTLVFFVEITGQPNILFY [Q14E] showed a protein stability index of 2.11. In the case of TRIMIGLTLVFFVQITGQNNILFY [P19N], the protein stability index is reported as 1.72. Work on TRIMIGLTLVFFVQITGQLNILFY [P19L] yielded a protein stability index of 3.42. Variant TRIMIGLTLVFFVQITGQRNILFY [P19R] has a protein stability index of 3.63. TRIMIGLTLVFFVQITGQFNILFY [P19F] showed a protein stability index of 3.16. Work on TRIMIGLTLVFFVQITGQHNILFY [P19H] yielded a protein stability index of 3.72. Variant TRIMAGLTLVFFVQITGQPNILFY [I5A] has a protein stability index of 2.6. Variant TRIMVGLTLVFFVQITGQPNILFY [I5V] has a protein stability index of 2.69. With TRIMIGLQLVFFVQITGQPNILFY [T8Q] the protein stability index was 2.43. TRIMIGLLLVFFVQITGQPNILFY [T8L] gave a protein stability index of 3.33. For TRIMIGLMLVFFVQITGQPNILFY [T8M], the protein stability index was 3.52. With TRIMIGLILVFFVQITGQPNILFY [T8I] the protein stability index was 2.72. For TRIMIGLTLWFFVQITGQPNILFY [V10W], the protein stability index was 2.58. For TRIMIGLTLNFFVQITGQPNILFY [V10N], the protein stability index was 3.65. For TRINIGLTLVFFVQITGQPNILFY [M4N], the protein stability index was 3.52. For TRIQIGLTLVFFVQITGQPNILFY [M4Q], the protein stability index was 2.88. TRITIGLTLVFFVQITGQPNILFY [M4T] gave a protein stability index of 2.73. Work on TRIYIGLTLVFFVQITGQPNILFY [M4Y] yielded a protein stability index of 2.6. Variant TRILIGLTLVFFVQITGQPNILFY [M4L] has a protein stability index of 2.64. Work on TRIMIGLTLVSFVQITGQPNILFY [F11S] yielded a protein stability index of 3.83. For TRIMIGLTLVIFVQITGQPNILFY [F11I], the protein stability index was 3.63. TRAMIGLTLVFFVQITGQPNILFY [I3A] gave a protein stability index of 2.59. TRTMIGLTLVFFVQITGQPNILFY [I3T] gave a protein stability index of 1.84. TRRMIGLTLVFFVQITGQPNILFY [I3R] showed a protein stability index of 2.86. With TRFMIGLTLVFFVQITGQPNILFY [I3F] the protein stability index was 2.81. In the case of TRLMIGLTLVFFVQITGQPNILFY [I3L], the protein stability index is reported as 2.85. TRCMIGLTLVFFVQITGQPNILFY [I3C] gave a protein stability index of 2.21. For TRHMIGLTLVFFVQITGQPNILFY [I3H], the protein stability index was 2.87. Work on TRGMIGLTLVFFVQITGQPNILFY [I3G] yielded a protein stability index of 2.12. Work on TDIMIGLTLVFFVQITGQPNILFY [R2D] yielded a protein stability index of 3.39. Work on TSIMIGLTLVFFVQITGQPNILFY [R2S] yielded a protein stability index of 2.95. For TIIMIGLTLVFFVQITGQPNILFY [R2I], the protein stability index was 2.93. For TRIMIGLTNVFFVQITGQPNILFY [L9N], the protein stability index was 2.69. With TRIMIGLTIVFFVQITGQPNILFY [L9I] the protein stability index was 3.09. TRIMIGLTCVFFVQITGQPNILFY [L9C] gave a protein stability index of 2.63. TRIMIGLTRVFFVQITGQPNILFY [L9R] gave a protein stability index of 3.25.
